Data as given in the supplement of paper PMC10126150.
± gives the standard deviation of the averaged measurements.

Each sequence was assayed on ATP (assay: switch fluorescence ratio, 500 uM ATP over buffer (Cy3 cluster intensity, sum of 5 cycles each) (fold (ratio)); higher = stronger signal-on switching upon ATP binding; sequences stand for … in TCGTCGGCAGCGTCAGATGTGTATAAGAGACAGTTTTTTTTTTTTTTTTTTTTTTTTT…TC). Details: aptamer strand: ATP DNA aptamer (quencher-CACCTGGGGGAGTATTGCGGAGGAAGG + anchor), 100 nM annealed; ATP concentration: 500 uM.
Outline: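 Exposure to 500 uM ATP lasted 15 min at 22 °C before imaging, and a selection-buffer image was taken beforehand, for Cy3-labelled switching-strand clusters on a modified Illumina MiSeq flow-cell annealed to 100 nM quencher-labelled ATP aptamer. Five buffer/ATP cycles were run with NaOH stripping and re-annealing between them. The fluorescence ratio per cluster is summed target-cycle over summed buffer-cycle Cy3 intensity, averaged per switch-domain sequence. Clusters outside 100-1000 RFU were excluded.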

Sequence | switch fluorescence ratio
TAGGGCGACT | 1.04 ± 0.049
TAGGGCGCGT | 0.9947 ± 0.0094
TAGGGCGGTT | 0.98 ± 0.046
TAGGGCTTAG | 1.02 ± 0.032
TAGGGGACAA | 1 ± 0.035
TAGGGGAGGA | 0.993 ± 0.035
TAGGGGCCTG | 0.9831 ± 0.0098
TAGGGGCTTC | 0.979 ± 0.018
TAGGGGGAGT | 0.962 ± 0.059
TAGGGGGCAC | 1 ± 0.025
TAGGGGGGCA | 0.991 ± 0.041
TAGGGGGGGG | 1.02 ± 0.073
TAGGGGGGTG | 1.02 ± 0.025
TAGGGGGTAC | 1.31 ± 0.58
TAGGGGGTTG | 0.987 ± 0.027
TAGGGGGTTT | 0.99 ± 0.032
TAGGGGTAGT | 1.01 ± 0.033
TAGGGGTCAA | 0.99815 ± 0.0002
TAGGGGTGAT | 1.02 ± 0.047
TAGGGTACCG | 1.06 ± 0.032
TAGGGTTGGA | 1 ± 0.018
TAGGGTTGTG | 0.9838 ± 0.0033
TAGGTAAAGA | 0.98 ± 0.021
TAGGTAGATG | 1.02 ± 0.018
TAGGTAGGGT | 1.04 ± 0.073

Sequence | switch fluorescence ratio
TAGGTATGCG | 1.18 ± 0.037
TAGGTCGCCA | 1.04 ± 0.011
TAGGTCTGCA | 1.033 ± 0.0058
TAGGTCTGGG | 1.01 ± 0.036
TAGGTGGGGG | 1.01 ± 0.039
TAGGTGGGGT | 0.971 ± 0.016
TAGGTGTGTA | 0.984 ± 0.031
TAGGTGTTGC | 1 ± 0.023
TAGGTTCCGG | 0.993 ± 0.034
TAGGTTCCTT | 0.986 ± 0.035
TAGGTTGGGG | 1.005 ± 0.0065
TAGGTTGTCT | 1.03 ± 0.036
TAGGTTTAAT | 0.992 ± 0.036
TAGGTTTAGG | 0.987 ± 0.013
TAGGTTTGGC | 1.03 ± 0.024
TAGGTTTTCG | 0.98974 ± 0.00052
TAGGTTTTTG | 1.01 ± 0.058
TAGTAACGGT | 0.996 ± 0.053
TAGTAAGGGG | 0.969 ± 0.051
TAGTAAGTTT | 0.998 ± 0.012
TAGTAGAGTT | 1 ± 0.013
TAGTAGCCTT | 1.03 ± 0.022
TAGTAGGGCA | 1.01 ± 0.033
TAGTATGAGG | 0.976 ± 0.021
TAGTATGGCG | 1.04 ± 0.088

Sequence | switch fluorescence ratio
TAGTATGGGA | 0.968 ± 0.013
TAGTATTTAT | 1.02 ± 0.044
TAGTCAGAAT | 0.967 ± 0.012
TAGTCAGAGG | 1.01 ± 0.012
TAGTCCCCCC | 1.21 ± 0.2
TAGTCGATGC | 1.03 ± 0.034
TAGTCGCTCC | 1.03 ± 0.034
TAGTGAACTT | 1.01 ± 0.0054
TAGTGAAGGG | 0.9974 ± 0.0061
TAGTGATGCG | 0.967 ± 0.025
TAGTGCCTGT | 0.995 ± 0.028
TAGTGCGGTA | 1.036 ± 0.0022
TAGTGGAAAC | 0.9885 ± 0.0015
TAGTGGGGGC | 1.01 ± 0.044
TAGTGGGGTA | 0.98 ± 0.032
TAGTGGGTCC | 1.02 ± 0.037
TAGTGGGTTA | 0.974 ± 0.023
TAGTGGGTTG | 1 ± 0.021
TAGTGTATCG | 0.993 ± 0.045
TAGTGTCTTT | 0.993 ± 0.014
TAGTGTGTTG | 0.996 ± 0.011
TAGTGTTGGG | 0.9837 ± 0.0015
TAGTTAACTT | 1.01 ± 0.021
TAGTTAATCG | 0.968 ± 0.017
TAGTTACGAT | 1.04 ± 0.012

Sequence | switch fluorescence ratio
TAGTTATGAG | 1.12 ± 0.19
TAGTTATGGG | 0.998 ± 0.044
TAGTTCGTTG | 0.9799 ± 0.0081
TAGTTGAACA | 1.01 ± 0.021
TAGTTGATGT | 1.026 ± 0.008
TAGTTGGATT | 0.972 ± 0.038
TAGTTGGGGC | 1.01 ± 0.026
TAGTTGGGTT | 0.986 ± 0.041
TAGTTGTAAA | 1.03 ± 0.075
TAGTTGTTCC | 1.07 ± 0.07
TAGTTGTTCT | 0.962 ± 0.022
TAGTTTCTGG | 0.965 ± 0.02
TAGTTTGGAA | 0.984 ± 0.04
TAGTTTGGAT | 1.01 ± 0.026
TAGTTTGGCA | 0.985 ± 0.037
TAGTTTGGTT | 0.9887 ± 0.0052
TAGTTTGTTT | 1.02 ± 0.074
TATAAAACAC | 1.02 ± 0.013
TATAAAACGG | 1.14 ± 0.045
TATAAAAGTG | 0.958 ± 0.053
TATAAATTGC | 1.01 ± 0.016
TATAACGCGC | 1.11 ± 0.061
TATAAGACAT | 1.03 ± 0.038
TATAAGACTT | 1.01 ± 0.035
TATAAGAGTG | 1.03 ± 0.032
